Experimental data published in article PMC5384658, “The evolution of Sex-linked barring alleles in chickens involves both regulatory and coding changes in CDKN2A” (PLoS Genetics, 2017).
One block for each substance: values may come before it.

Legend:
[1] = ultracentrifugation, far-UV CD and NMR; ref [21], [22]; cited from earlier work
Source text: The striking phenotypic differences associated with the B0, B1, and B2 alleles imply that the two missense mutations must affect ARF function since all three alleles share the two non-coding changes associated with Sex-linked barring (Fig 1). To learn more about the specific effects of the coding ARF mutations we performed biophysical studies on peptides corresponding to the N-terminus of wild-type and mutant chicken ARF (ARF1-14^WT, ARF1-14^V9D, ARF1-14^R10C) and purified chicken MDM2_204-298. Previously, using a combination of ultracentrifugation, far-UV circular dichroism (CD) and NMR exper ...

[2] = molecular target: chicken MDM2_(204-298) (chicken)

Substance: MDM2_210-304: human MDM2 XP_005268929 residues 210-304, corresponding to chicken MDM2_204-298
structure in free state [1]: intrinsically disordered in their free states

p53-luc luciferase reporter activity in U2OS cells transfected with chicken ARF (coding region, pcDNA3.1) carrying V9D, compared to wild-type chicken ARF (% of wild type) [2]: 58
Substance: ARF_(1-14)^V9D peptide (N-terminus of chicken ARF with V9D, B1 allele) (from UniProt A0A8V0X483 1-14)

p53-luc luciferase reporter activity in U2OS cells transfected with chicken ARF (coding region, pcDNA3.1) carrying R10C, compared to wild-type chicken ARF (% of wild type) [2]: 77
Substance: ARF_(1-14)^R10C peptide (N-terminus of chicken ARF with R10C, B2 allele) (from UniProt A0A8V0X483 1-14)
